Common to all, as to assay: pulldown
The target in data set [1] is T1, PK07890.1 (Cannabis sativa) (UniProt A0A7J6I7X4).
T1 sequence: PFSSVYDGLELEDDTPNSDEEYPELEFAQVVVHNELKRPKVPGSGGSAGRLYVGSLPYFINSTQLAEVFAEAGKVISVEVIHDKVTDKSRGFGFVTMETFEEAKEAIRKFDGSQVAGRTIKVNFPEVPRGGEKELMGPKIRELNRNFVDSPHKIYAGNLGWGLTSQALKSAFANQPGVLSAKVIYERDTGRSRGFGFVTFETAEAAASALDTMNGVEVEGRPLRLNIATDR
To be noted: 20 nM protein, 1.5 uM RNA pool; 20 mM HEPES pH 7.8, 70 mM KCl, 10 mM NaCl, 10% glycerol, 2 mM DTT, 0.1 ug/uL BSA; 30 min, 4 C.

The target in the next data set is T2, LIN28A (Homo sapiens) (UniProt Q9H9Z2).
T2 sequence: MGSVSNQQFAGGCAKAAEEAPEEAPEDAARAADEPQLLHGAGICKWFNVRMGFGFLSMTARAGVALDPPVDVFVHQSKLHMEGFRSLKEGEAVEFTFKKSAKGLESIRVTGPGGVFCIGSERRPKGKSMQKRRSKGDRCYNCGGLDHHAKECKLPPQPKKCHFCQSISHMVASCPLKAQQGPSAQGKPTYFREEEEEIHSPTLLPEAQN
As to conditions: 20 nM protein, 1.5 uM RNA pool; 20 mM HEPES pH 7.8, 70 mM KCl, 10 mM NaCl, 10% glycerol, 2 mM DTT, 0.1 ug/uL BSA; 30 min, 4 C (protocol of this paper; not …); cited from earlier work.

In data set [2] the target is T3, RBFOX2 I153V (Homo sapiens) (UniProt O43251).
T3 sequence: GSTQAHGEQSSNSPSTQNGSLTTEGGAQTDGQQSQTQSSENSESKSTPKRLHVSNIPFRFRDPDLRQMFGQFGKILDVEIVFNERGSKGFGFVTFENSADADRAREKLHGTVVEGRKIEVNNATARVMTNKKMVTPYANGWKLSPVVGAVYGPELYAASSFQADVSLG
As to conditions: 20 nM protein, 1.5 uM RNA pool; 20 mM HEPES pH 7.8, 70 mM KCl, 10 mM NaCl, 10% glycerol, 2 mM DTT, 0.1 ug/uL BSA; 30 min, 4 C.

Data set [3] has as its target T4, PK00353.1 del132-144;P293S (Cannabis sativa) (UniProt A0A7J6GFS8).
T4 sequence: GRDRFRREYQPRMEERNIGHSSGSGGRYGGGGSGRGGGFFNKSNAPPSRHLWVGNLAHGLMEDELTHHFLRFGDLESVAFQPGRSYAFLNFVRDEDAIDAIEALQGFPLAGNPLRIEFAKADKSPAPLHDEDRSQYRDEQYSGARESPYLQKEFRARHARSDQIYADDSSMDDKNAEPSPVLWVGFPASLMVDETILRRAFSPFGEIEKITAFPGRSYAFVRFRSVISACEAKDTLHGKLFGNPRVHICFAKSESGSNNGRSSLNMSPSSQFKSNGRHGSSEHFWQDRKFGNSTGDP
As to conditions: 20 nM protein, 1.5 uM RNA pool; 20 mM HEPES pH 7.8, 70 mM KCl, 10 mM NaCl, 10% glycerol, 2 mM DTT, 0.1 ug/uL BSA; 30 min, 4 C.

Data set [4] concerns the target T5, PK21582.1 S73F;V173L (Cannabis sativa) (UniProt A0A7J6HF55).
T5 sequence: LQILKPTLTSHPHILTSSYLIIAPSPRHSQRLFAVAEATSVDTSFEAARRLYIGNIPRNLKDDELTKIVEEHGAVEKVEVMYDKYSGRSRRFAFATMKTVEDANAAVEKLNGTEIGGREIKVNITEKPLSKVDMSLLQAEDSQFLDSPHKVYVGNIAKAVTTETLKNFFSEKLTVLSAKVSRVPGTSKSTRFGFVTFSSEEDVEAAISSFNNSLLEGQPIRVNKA
As to conditions: 20 nM protein, 1.5 uM RNA pool; 20 mM HEPES pH 7.8, 70 mM KCl, 10 mM NaCl, 10% glycerol, 2 mM DTT, 0.1 ug/uL BSA; 30 min, 4 C.

For data set [5], the target named is T6, CG4806 (Drosophila melanogaster) (UniProt Q3ZAN6).
T6 sequence: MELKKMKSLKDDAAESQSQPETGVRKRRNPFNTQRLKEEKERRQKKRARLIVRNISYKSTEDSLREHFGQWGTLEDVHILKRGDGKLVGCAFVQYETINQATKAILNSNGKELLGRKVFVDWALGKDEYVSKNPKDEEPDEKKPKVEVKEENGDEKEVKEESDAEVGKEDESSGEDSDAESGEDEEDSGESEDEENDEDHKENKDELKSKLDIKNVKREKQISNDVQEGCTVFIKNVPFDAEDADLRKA
To be noted: 20 nM protein, 1.5 uM RNA pool; 20 mM HEPES pH 7.8, 70 mM KCl, 10 mM NaCl, 10% glycerol, 2 mM DTT, 0.1 ug/uL BSA; 30 min, 4 C.

In data set [6] the target is T7, TBPH (Drosophila melanogaster) (UniProt E1JGV0).
T7 sequence: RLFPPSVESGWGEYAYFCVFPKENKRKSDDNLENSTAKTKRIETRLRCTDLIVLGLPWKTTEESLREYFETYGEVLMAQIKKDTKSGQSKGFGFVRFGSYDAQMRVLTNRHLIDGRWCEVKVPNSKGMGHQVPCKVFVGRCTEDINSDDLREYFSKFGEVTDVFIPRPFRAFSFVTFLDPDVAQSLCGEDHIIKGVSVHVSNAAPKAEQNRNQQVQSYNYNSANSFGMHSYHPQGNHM
As to conditions: 20 nM protein, 1.5 uM RNA pool; 20 mM HEPES pH 7.8, 70 mM KCl, 10 mM NaCl, 10% glycerol, 2 mM DTT, 0.1 ug/uL BSA; 30 min, 4 C.

For data set [7], the target named is T8, sart3 (Tetraodon nigroviridis) (UniProt H3DEK9).
T8 sequence: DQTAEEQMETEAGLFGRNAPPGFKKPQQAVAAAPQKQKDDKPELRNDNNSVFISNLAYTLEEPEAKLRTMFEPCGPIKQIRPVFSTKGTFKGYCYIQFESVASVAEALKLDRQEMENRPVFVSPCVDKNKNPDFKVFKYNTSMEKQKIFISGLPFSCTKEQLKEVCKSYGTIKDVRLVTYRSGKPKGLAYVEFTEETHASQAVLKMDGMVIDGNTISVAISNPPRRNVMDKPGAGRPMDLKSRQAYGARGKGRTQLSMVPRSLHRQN
To be noted: 20 nM protein, 1.5 uM RNA pool; 20 mM HEPES pH 7.8, 70 mM KCl, 10 mM NaCl, 10% glycerol, 2 mM DTT, 0.1 ug/uL BSA; 30 min, 4 C.

The next data set addresses ELAVL2 (Homo sapiens) (UniProt Q12926). As to conditions: 20 nM protein, 1.5 uM RNA pool; 20 mM HEPES pH 7.8, 70 mM KCl, 10 mM NaCl, 10% glycerol, 2 mM DTT, 0.1 ug/uL BSA; 30 min, 4 C.

ELAVL2 (Homo sapiens), sequence (Q12926 1-189): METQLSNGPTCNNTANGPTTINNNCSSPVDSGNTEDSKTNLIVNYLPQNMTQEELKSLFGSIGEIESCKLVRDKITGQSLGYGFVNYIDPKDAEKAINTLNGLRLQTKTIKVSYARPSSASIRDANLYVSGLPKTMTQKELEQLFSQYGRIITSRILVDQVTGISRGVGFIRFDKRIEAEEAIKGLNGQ

GAUACU [RNAcompete motif RNCMPT00790]: in data set [1], the binding signal (z-score (mean of top ten 7-mers)) worked out at 15.3.
For CGGAGG [RNAcompete motif RNCMPT00162], the binding signal (z-score (mean of top ten 7-mers)) with LIN28A (Homo sapiens) was 6.24.
In data set [2], UGCAUG [RNAcompete motif RNCMPT00818] registered a binding signal (z-score (mean of top ten 7-mers)) of 26.3.
With CAAAGCA [RNAcompete motif RNCMPT00789], the binding signal (z-score (mean of top ten 7-mers)) in [3] is 7.23.
Turning to ANUGGAA [RNAcompete motif RNCMPT00792], in data set [4], the binding signal (z-score (mean of top ten 7-mers)) came out at 10.3.
CUGUAGUA [RNAcompete motif RNCMPT00784]: the binding signal (z-score (mean of top ten 7-mers)) in [5] was determined as 7.2.
For GANUGA [RNAcompete motif RNCMPT00776], the binding signal (z-score (mean of top ten 7-mers)) in [6] turned out to be 9.14.
In the case of AGAGAAG [RNAcompete motif RNCMPT00774], the binding signal (z-score (mean of top ten 7-mers)) in data set [7] came out at 11.5.
In the data set with ELAVL2 (Homo sapiens), UUAUUUU [RNAcompete motif RNCMPT00814] showed a binding signal (z-score (mean of top ten 7-mers)) of 15.1.
